Measured values reported in patent publication US8030043B2, “β-galactoside-α2,3-sialyltransferase, a gene encoding thereof, and a method for producing thereof” (Japan Tobacco Inc., priority 2005, dated 2011).

B1: ISH224-N1C0 first clone: JT-ISH-224 sialyltransferase lacking signal peptide region, nucleotides 73 to 1230 of SEQ ID NO: 28 (protein, listed as Photobacterium sp.)
chain: MLVFCKKMFFSVFISLMILGGCNSDSNHNNSDGNITKNKTIEVYVDRATLPTIQQMTQIINENSNNKKLISWSRYPINDEELLESINGSFFKNNSELIKSLDSMILTNDIKKVIINGNTLWAADVVNIIKSIEAFGKKTEIELNFYDDGSAEYVRLYDFSKLPESEQEYKISLSKDNILSSINGTQPFENVVENIYGFSQLYPTTYHMLRADIFETNLPLRSLKGVLSNNIKQMKWDYFKTFNSQQKDKFYNFTGFNPDEIMEQYKASPNKNFIFVGTNSGTATAEQQIDILTEAKNPNSPIITKSIQGFDLFFKGHPSATYNKQIIDAHNMIEIYNKIPFEALIMTDALPDAVGGMGSSVFFSLPNTVENKFIFYKSDTDIENNALIQVMIELNIVNRNDVKLISDLQ
modifications: CDS (1)..(1230) /gene=“224-23ST” /product=“Beta-galactoside-alpha-2,3-sialyltransferase”
B2: FAJ-N1C0 first clone: JT-FAJ-16 sialyltransferase lacking signal peptide region, nucleotides 67 to 1209 of SEQ ID NO: 30 (protein, listed as Vibrio sp.)
chain: MKNIITKRMLIILSSLFTIIGCNNDNSTTTNNNAIEIYVDRATLPTIQQMTKIVSQKTSNKKLISWSRYPITDKSLLKKINAEFFKEQFELTESLKNIILSENIDNLIIHGNTLWSIDVVDIIKEVNLLGKNIPIELHFYDDGSAEYVRIYEFSKLPESEQKYKTSLSKNNIKFSIDGTDSFKNTIENIYGFSQLYPTTYHMLRADIFDTTLKINPLRELLSNNIKQMKWDYFKDFNYKQKDIFYSLTNFNPKEIQEDFNKNSNKNFIFIGSNSATATAEEQINIISEAKKENSSIITNSISDYDLFFKGHPSATFNEQIINAHDMIEINNKIPFEALIMTGILPDAVGGMGSSVFFSIPKEVKNKFVFYKSGTDIENNSLIQVMLKLNLINRDNIKLISDI
modifications: CDS (1)..(1209) /gene=“FAJ16-23ST” /product=“Beta-galactoside- alpha 2,3-sialyltransferase”
B3: ISH467-N2C0 third clone: JT-ISH-467 sialyltransferase lacking signal peptide region, nucleotides 73 to 1230 of SEQ ID NO: 1, no mutation (protein, listed as Photobacterium phosphoreum)
chain: MFVFCKKIFFLIFISLMILGGCNSDSKHNNSDGNITKNKTIEVYVDRATLPTIQQMTQIINENSNNKKLISWSRYPINDETLLESINGSFFKNRPELIKSLDSMILTNEIKKVIINGNTLWAVDVVNIIKSIEALGKKTEIELNFYDDGSAEYVRLYDFSRLPESEQEYKISLSKDNIQSSINGTQPFDNSIENIYGFSQLYPTTYHMLRADIFETNLPLTSLKRVISNNIKQMKWDYFTTFNSQQKNKFYNFTGFNPEKIKEQYKASPHENFIFIGTNSGTATAEQQIDILTEAKKPDSPIITNSIQGLDLFFKGHPSATYNQQIIDAHNMIEIYNKIPFEALIMTDALPDAVGGMGSSVFFSLPNTVENKFIFYKSDTDIENNALIQVMIELNIVNRNDVKLISDLQ
modifications: CDS (1)..(1230) /gene=“467-23ST” /product=“Beta-galactoside- alpha 2,3-sialyltransferase”

Columns and labels:
Format in all cases: biochemical
[1] = Optimum pH for enzyme activity; details: 25° C.; acetate, cacodylate, phosphate, TAPS, CHES, CAPS buffers pH 4.0-11.0
Protocol: Purified enzymes were prepared to examine the optimum pH and temperature for β-galactoside-α2,3-sialyltransferase produced by the strain JT-ISH-467 as well as recombinant β-galactoside-α2,3-sialyltransferases produced by the third clone of ISH467-N2C0, the first clone of ISH224-N1C0 and the first clone of FAJ-N1C0.
Acetate buffer (pH 4.0, pH 4.5 and pH 5.0), cacodylate buffer (pH 5.0, pH 5.5, pH 6.0, pH 6.5 and pH 7.0), phosphate buffer (pH 7.0, pH 7.5 and pH 8.0), TAPS buffer (pH 8.0, pH 8.5 and pH 9.0), CHES buffer (pH 9.0, pH 9.5 and pH 10.0) and CAPS buffer (pH 10.0, pH 10.5 and pH 11.0) were prepared and used for enzyme activity measurement at 25° C. at various pH values.
As a result, as shown in FIGS. 3-1 and 3-2, the enzyme activity was maximum at pH 5.0 for β-galactoside-α2,3-sialyltransferase produced by the strain JT-ISH-467, at pH 5.5 for the third clone of ISH467-N2C0, at pH 5.0 for the first clone of ISH224-N1C0, and at pH 5.5 for the first clone of FAJ-N1C0. […] It should be noted that enzyme activity at each pH was expressed as relative activity, assuming that the enzyme activity at pH where it reached a maximum was set to 100.

asialofetuin = assay: Sialic acid transfer to glycoprotein (asialofetuin), gel filtration and scintillation counting; details: asialofetuin acceptor; CMP-14C-NeuAc 22.8 nmol (about 19,000 cpm); enzyme 10 mU; 25° C., 2 hours
Description: Cell homogenates prepared from E. coli cells introduced with the third clone of ISH467-N2C0, the first clone of ISH224-N1C0 and the first clone of FAJ-N1C0 were each purified by ion exchange chromatography and hydroxyapatite chromatography to give an electrophoretically single band. The thus purified β-galactoside-α2,3-sialyltransferases were used in the following experiment in order to examine the presence or absence of sialyltransferase activity toward glycoproteins.
As a glycosyl acceptor substrate, asialofetuin was used. Asialofetuin (2 mg) was dissolved in 1 ml of 20 mM Bis-tris buffer (pH 6.0) and used as a glycosyl acceptor substrate solution. As a glycosyl donor substrate, CMP-^14C-NeuAc-containing CMP-NeuAc was used. The glycosyl acceptor substrate solution (40 μl), the glycosyl donor substrate (5 μl, 22.8 nmol (about 19,000 cpm)) and any of the enzyme solutions (5 μl, 10 mU each) were mixed and incubated at 25° C. for 2 hours to cause sialic acid transfer reaction. After completion of the reaction, the reaction solution was gel-filtered by being applied to a Sephadex G-50 Superfine (0.8×18.0 cm) equilibrated with 0.1 M sodium chloride. A glycoprotein-containing eluate fraction (2-4 ml fraction) from gel filtration was collected and measured for its radioactivity using a liquid scintillation counter to quantify sialic acid transferred to the glycosyl acceptor substrate.

[2] = Sialyltransferase activity in E. coli homogenate (crude enzyme solution), transfer of 14C-NeuAc from CMP-NeuAc to lactose; details: lactose acceptor; for Radioactivity (cpm) Average: average of duplicate; for Sialyltransferase activity in crude enzyme solution (in words): CMP-14C-NeuAc donor
Protocol: Sialyltransferase activity was measured as described in J. Biochem., 120, pp. 104-110 (1996) (which is hereby incorporated by reference in its entirety). More specifically, the enzymatic reaction was accomplished by using CMP-NeuAc (70 nmol, containing 25000 cpm CMP-NeuAc in which NeuAc was labeled with ^14C, 356 cpm/nmol; NeuAc represents N-acetylneuraminic acid) as a glycosyl donor substrate, lactose (1.25 μmol) as a glycosyl acceptor substrate, NaCl added to give a concentration of 0.5 M, and the enzyme-containing reaction solution (30 μl) prepared as described above. The enzymatic reaction was carried out at 25° C. for 10 to 30 minutes. After completion of the reaction, 1.97 ml of 5 mM phosphate buffer (pH 6.8) was added to the reaction solution, which was then applied to a Dowex 1×8 (PO4^3− form, 0.2×2 cm, BIO-RAD) column. The radioactivity was measured for the reaction product, i.e., sialyllactose contained in the eluate (0 to 2 ml) from this column to calculate the enzyme activity.
An induction experiment of protein expression was performed on the two 467-N0C0 clones and the three 467-N2C0 clones obtained in (4) above. A single colony of E. coli TB1 having the expression vector pTrc99A carrying each clone was inoculated into LB medium (5 ml) containing an antibiotic, ampicillin (final concentration 100 μg/mL), and pre-cultured at 30° C. to about A600=0.5, followed by addition of IPTG (isopropyl-β-D(−)-thiogalactopyranoside, Wako Pure Chemical Industries, Ltd. Japan) at a final concentration of 1 mM. After culturing with shaking at 30° C. for an additional 4 hours, the cells in 2 ml culture solution were collected by centrifugation. These cells were suspended in 200 μl of 20 mM BisTris buffer (pH 7.0) containing 0.336% Triton X-100 and 0.5 M sodium chloride, and ultrasonically homogenized under ice cooling. The resulting homogenate was defined as a crude enzyme solution and provided for activity measurement. The reaction was carried out in duplicate, and the reaction composition was the same as shown in Example 1, except that the reaction time was set to 15 hours.
In the same manner as shown in Example 5(5), an induction experiment of protein expression was performed on 2 clones, i.e., the first clone of ISH224-N0C0 and the first clone of ISH224-N1C0 to measure their enzyme activity.
In the same manner as shown in Example 5(5), an induction experiment of protein expression was performed on 3 clones, i.e., the first clone of FAJ-N0C0 as well as the first and second clones of FAJ-N1C0 to measure their enzyme activity.

[3] = JT-ISH-224 gene clones, as Example 5(5)
[4] = JT-FAJ-16 gene clones, as Example 5(5)
[5] = JT-ISH-467 gene clones, 25° C., reaction time 15 hours

Molecule | pH at which the enzyme activity was maximum (optimum pH) [1] | Radioactivity (cpm) (asialofetuin) | Radioactivity (cpm) Round 1 [2, 3] [cpm] | Radioactivity (cpm) Round 2 [2, 3] [cpm] | Radioactivity (cpm) Average [2, 3] [cpm] | Sialyltransferase activity in crude enzyme solution (in words) [2] | Radioactivity (cpm) Round 1 [2, 4] [cpm] | Radioactivity (cpm) Round 2 [2, 4] [cpm] | Radioactivity (cpm) Average [2, 4] [cpm] | Radioactivity (cpm) Round 1 [2, 5] [cpm] | Radioactivity (cpm) Round 2 [2, 5] [cpm] | Radioactivity (cpm) Average [2, 5] [cpm]
B1 | 5.0 | 3301 | 9330 | 9415 | 9672.5 | sialyltransferase activity was observed | – | – | – | – | – | –
B2 | 5.5 | 2865 | – | – | – | sialyltransferase activity was observed | 5664 | 6724 | 6194 | – | – | –
B3 | 5.5 | 1729 | – | – | – | sialyltransferase activity was also observed | – | – | – | 8547 | 8481 | 8514
